From article doi:10.1101/2020.01.14.906479 (bioRxiv, 2020)
Square brackets hold non-standard residues; d marks the D form. Ends that are not written are not given here. pS = N[C@@H](COP(=O)(O)O)C(=O)O

T1: recombinant Plasmodium falciparum 14-3-3I (GST-14-3-3I fusion protein) (P. falciparum 3D7, UniProt C0H4V6 1-262)
T1 sequence (looked up): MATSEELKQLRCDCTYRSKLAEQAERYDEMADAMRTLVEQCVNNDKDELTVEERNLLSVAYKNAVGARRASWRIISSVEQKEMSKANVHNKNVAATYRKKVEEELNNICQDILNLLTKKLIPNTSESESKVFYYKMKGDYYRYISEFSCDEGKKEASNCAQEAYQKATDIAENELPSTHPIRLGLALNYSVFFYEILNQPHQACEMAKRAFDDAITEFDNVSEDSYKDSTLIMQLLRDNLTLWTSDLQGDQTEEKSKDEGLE


Target: T1, recombinant Plasmodium falciparum …
Assay: ITC

Row | Binder | Ka [M⁻¹] | dH [kcal/mol]
1 | RLYH[pS]LPA [phosphopeptide 2 (Mode II 14-3-3 recognition motif, RLYHpSLPA)] | 830000 | -1.52 ± 0.096
2 | ARSH[pS]YPA [phosphopeptide 1 (Mode I 14-3-3 recognition motif, ARSHpSYPA)] | 1.7e+06 | -11.3 ± 4.27
